1 substance from publication PMC13185593 can be followed below.

In this data set the test system is HuR. The data set can be described thus: SPR. The note with it: SPR: 25 mM Tris pH 7.5, 100 mM KCl, 7 mM b-mercaptoethanol, 10% glycerol, 25 C, UV crosslinking: 5 mM HEPES pH 7.6, 25 mM KCl, 2 mM MgCl2, 3.8% glycerol.

In general, Kd refers to the equilibrium constant for the complex coming apart. Lower therefore signals higher affinity.

In the case of SARS-CoV-2 5'-UTR WT, biotin (SPR), the Kd turned out to be 32.5 nM.
